# T1: human Claudin-1 (CLDN1) (human, UniProt O95832 1-211)
# T1 construct: whole, on cells; Transmembrane tight-junction protein, endogenously expressed on primary human cholangiocytes in the flow cytometry assay
# T1 sequence (looked up): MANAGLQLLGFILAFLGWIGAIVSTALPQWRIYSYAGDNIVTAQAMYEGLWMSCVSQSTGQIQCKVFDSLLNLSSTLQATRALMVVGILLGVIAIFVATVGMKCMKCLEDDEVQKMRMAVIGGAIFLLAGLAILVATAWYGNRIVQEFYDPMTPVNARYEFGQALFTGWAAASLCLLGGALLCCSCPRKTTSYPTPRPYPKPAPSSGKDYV
# Molecular target: T1, human Claudin-1 (CLDN1)
# Test: flow cytometry on primary human cholangiocytes (HBEpiC) after 10 ng/ml TNFalpha for 24 h; anti-human AF647 secondary antibody
# Experimental: Primary human cholangiocytes were purchased from Innoprot, Bizkaia, Spain (Human Biliary Epithelial Cells, HBEpiC, ref. P10654; Batch #21614) and cultured on poly-1-lysine-coated surfaces according to manufacturer's instructions. Following stimulation, with 10 ng/ml TNFα for 24 hours, cells were harvested for assessment of CLDN1 expression by flow cytometry using anti-CLDN1 mAb H3L3 (Colpitts et al. 2018) and an anti-human AF647-conjugated secondary antibody.
binder,measurement,value
"anti-CLDN1 mAb H3L3 (antibody, human IgG1, kappa, V domains shown, Humanized anti-Claudin-1 monoclonal antibody; also called CLDN1 H3L3; CLDN1-specific H3L3 mAb) VH: QVQLVESGGGVVQPGRSLRLSCLGSGFSFSSYGMNWVRQAPGKGLEWVASISPSGSYFYYADSVKGRFTISRDNSKNTLYLQMTSLRAEDTAIYYCARLPGFNPPFDHWGQGTLVTVSS VL: DIQMTQSPSSLSASVGDRVTITCKASQNVGGNVDWYQWKPGKAPKLLIYGASNRYTGVPDRFRGSGSGTDFTLTISSLQPEDVATYYCLQYKNNPWTFGGGTKVEIKR",binding result,binds
